Assay results as given in paper PMC1634882.

Columns and labels:
[1] = molecular target: PorA in cell envelopes of N. meningitidis strain HB-1 (N. meningitidis (endogenous in HB-1)) (UniProt E6MZM0); assay: semi-native SDS-PAGE; cell envelopes of N. meningitidis HB-1 or of E. coli expressing PorA or PorA-Q, samples not boiled, blot probed with anti-PorA antibody MN5C11G
[2] = molecular target: PorA-Q mutant protein (penultimate Lys of PorA substituted by Gln) expressed in E. coli (N. meningitidis) (UniProt E6MZM0); assay: as above
[3] = molecular target: Omp85 from Escherichia coli, refolded in vitro from inclusion bodies (E. coli) (UniProt P0A940)
[4] = molecular target: Omp85 from Escherichia coli, refolded in vitro from inclusion bodies (E. coli) (UniProt P0A940); remark: listed apart in the source

PorA in cell envelopes of N. meningitidis strain HB-1 (from UniProt E6MZM0 20-331) (natural protein)
stoichiometry N [1]: 3

PorA-Q mutant protein (penultimate Lys of PorA substituted by Gln) expressed in E. coli (from UniProt E6MZM0 20-331) (natural protein)
stoichiometry N [2]: 3

denatured E. coli PhoE porin (from UniProt P02932 22-351) (natural protein)
increase in conductivity per 0.12-nS Omp85 channel in planar lipid bilayers (voltage ramps); dose-dependent opening at pM concentrations of denatured PhoE, value at 80 pM [3]: 0.067 nS
percent increase in conductivity per 0.12-nS Omp85 channel upon addition of 80 pM denatured PhoE [3]: 56 to 58%

maltoporin LamB from E. coli, denatured (from UniProt P02943 26-446) (natural protein)
increase in conductivity per 0.12-nS Omp85 channel in planar lipid bilayers (voltage ramps) upon addition of 80 pM denatured LamB [3]: 0.069 nS
percent increase in conductivity per 0.12-nS Omp85 channel upon addition of 80 pM denatured LamB [3]: 56 to 58%

synthetic peptide corresponding to the C-terminal 12 amino acid residues of PhoE (CterPhoE)
increase in conductivity per 0.12-nS Omp85 channel in planar lipid bilayers; dose-dependent opening at μM concentrations of the peptide, value at 96 μM [4]: 0.6 nS
